Positions count from the first letter of the chain named. Names and notes keep the numbering of the source.
T1: human IL2Rα (human, UniProt P01589 22-213, limits assumed)
T1 construct: also called IL2α; CD25
T1 sequence (looked up): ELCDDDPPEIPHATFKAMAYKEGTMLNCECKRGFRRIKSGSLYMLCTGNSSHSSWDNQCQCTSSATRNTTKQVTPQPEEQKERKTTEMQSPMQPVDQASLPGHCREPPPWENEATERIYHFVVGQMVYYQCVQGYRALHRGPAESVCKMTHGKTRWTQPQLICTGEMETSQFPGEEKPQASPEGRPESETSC

T2: human IL2Rβ (human, UniProt P14784 27-239)
T2 construct: also called IL2β; CD122
T2 sequence (looked up): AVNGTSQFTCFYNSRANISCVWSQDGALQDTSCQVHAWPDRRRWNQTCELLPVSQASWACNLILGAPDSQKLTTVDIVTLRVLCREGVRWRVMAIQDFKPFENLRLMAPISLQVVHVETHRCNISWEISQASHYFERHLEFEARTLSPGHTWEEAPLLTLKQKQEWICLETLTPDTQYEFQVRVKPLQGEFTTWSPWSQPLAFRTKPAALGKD

B1: EP105 (ligand)
chain: APTSSSTKKTQLQLEHLLLDLQMILNGINNYKNPELTIMLTPKFYMPKKATELKHLQCLEEELKPLEEVLNLAQSKNFHLRPRDLISNINVIVLELKGSETTFMCEYADETATIVEFLNRWITFSQSIISTLT
B2: EP119 (ligand)
chain: B1 chain with E35K, I38G, P42F, Y45S
B3: EP113 (ligand)
chain: B1 chain with E35K, I38Y, P42R
B4: EP115 (ligand)
chain: B1 chain with I28L, E35K, I38S, P42F, Y45S
B5: EP108 (ligand)
chain: B1 chain with E35K, I38R, P42H, Y45V
B6: EP226 (ligand)
chain: APTSSSTKKTQLQLEHLLLDLQMILNGINNYKNPKLTRMLTAKFYMPKKATELKHLQCLEEELKPLEEVLNLAQSKNFHLGVTDSISNAIVLARELKGSETTFMCEYADETATIVEFLNRWITFSQSIISTLTGSHHHHHH
B7: EP002 (ligand)
chain: B1 chain with E35K, I38R, P42F, R81E, R83S, L85V, I92L, L94Q, S125C
notes: also called E002; not shown: C-terminal Flag and 6xHis tags
B8: EP006 (ligand)
chain: APTSSSTKKTQLQLEHLLLDLQMILNGINNYKNPKLTRMLTFKFYMPKKATELKHLQCLEEELKPLEEVLNLAQSKNFHLGVGDTIDNINVLVKELKGSETTFMCEYADETATIVEFLNRWITFCQSIISTLT
notes: also called EPIM-06; not shown: C-terminal Flag and 6xHis tags
B9: EP005 (ligand)
chain: B8 chain with G81T, V82A, G83E, T85V, I86V, D87T, N90T, K94Q
notes: not shown: C-terminal Flag and 6xHis tags
B10: EP080 (Fc fusion)
chain: APTSSSTKETQLQLKHLLLDLQMILNGINNYKNPKLTRMLTFKFYMPKKATELKHLQCLEEELKPLEEVLNLAQSKNFHLKWGDAVSNARVLAGALKGSETTFMCEYADETATIVEFLNRWITFCQSIISTLTEPKSCDKTHTCPLCPAPEAAGGPSVFLFPPKPKDTLMISRTPEVTCVVVDVSHEDPEVKFNWYVDGVEVHNAKTKPREEQYNSTYRVVSVLTVLHQDWLNGKEYKCKVSNKALGAPIEKTISKAKGQPREPQVYTLPPSRDELTKNQVSLTCLVKGFYPSDIAVEWESNGQPENNYKATPPVLDSDGSFFLYSKLTVDKSRWQQGNVFSCSVMHEALHNHYTQKSLSLSPGK
B11: EP081 (Fc fusion)
chain: ATPTSSSTKKTQLQLEHLLLDLQMILNGINNYKNPKLTRMLTFKFYMPKKATELKHLQCLEEELKPLEEVLNLAQSKNFHLGVGDTIDNINVLVKELKGSETTFMCEYADETATIVEFLNRWITFCQSIISTLTEPKSCDKTHTCPLCPAPEAAGGPSVFLFPPKPKDTLMISRTPEVTCVVVDVSHEDPEVKFNWYVDGVEVHNAKTKPREEQYNSTYRVVSVLTVLHQDWLNGKEYKCKVSNKALGAPIEKTISKAKGQPREPQVYTLPPSRDELTKNQVSLTCLVKGFYPSDIAVEWESNGQPENNYKATPPVLDSDGSFFLYSKLTVDKSRWQQGNVFSCSVMHEALHNHYTQKSLSLSPGK
B12: EP001-Fc, Bivalent (EP079) (Fc fusion)
chain: APTSSSTKKTQLQLEHLLLDLQMILNGINNYKNPKLTRMLTFKFYMPKKATELKHLQCLEEELKPLEEVLNLAQSKNFHLTARDAVDNMRVIIQELKGSETTFMCEYADETATIVEFLNRWITFCQSIISTLTEPKSCDKTHTCPLCPAPEAAGGPSVFLFPPKPKDTLMISRTPEVTCVVVDVSHEDPEVKFNWYVDGVEVHNAKTKPREEQYNSTYRVVSVLTVLHQDWLNGKEYKCKVSNKALGAPIEKTISKAKGQPREPQVYTLPPSRDELTKNQVSLTCLVKGFYPSDIAVEWESNGQPENNYKATPPVLDSDGSFFLYSKLTVDKSRWQQGNVFSCSVMHEALHNHYTQKSLSLSPGK
notes: Human IgG1 with L234A, L235A, P329G
B13: EP003-Fc, Bivalent (EP082) (Fc fusion)
chain: B10 chain with E9K, K15E, K81G, W82V, G83T, A85S, V86I, R90I, G94R, A95E
notes: as for B12
B14: EP083 (Fc fusion)
chain: APTSSSTKKTQLQLEHLLLDLQMILNGINNYKNPKLTEMLTFKFYMPKKATELKHLQCLEEELKPLEEVLNLAQSKNFHLEPSDVISNINVLVQELKGSETTFMCEYADETATIVEFLNRWITFCQSIISTLTEPKSCDKTHTCPLCPAPEAAGGPSVFLFPPKPKDTLMISRTPEVTCVVVDVSHEDPEVKFNWYVDGVEVHNAKTKPREEQYNSTYRVVSVLTVLHQDWLNGKEYKCKVSNKALGAPIEKTISKAKGQPREPQVYTLPPSRDELTKNQVSLTCLVKGFYPSDIAVEWESNGQPENNYKATPPVLDSDGSFFLYSKLTVDKSRWQQGNVFSCSVMHEALHNHYTQKSLSLSPGK
B15: EP004-Fc, Bivalent (EP078) (Fc fusion)
chain: B14 chain with E38R, E81C, S83T, V85T, S87E, N90T, V93I
notes: as for B12
B16: EP084 (Fc fusion)
chain: B14 chain with E38R, E81T, P82A, S83E, I86V, S87T, N90T

Target: T1, human IL2Rα
Test: SPR, IL2Rα captured on Protein A chip, IL2 at 100 nM
Method: The binding kinetics of IL2Rα-reduced binding clones to IL2Rα was assessed utilizing SPR technology with a Biacore T200, software version 2.0. For each cycle, 1 ug/mL of human IL2Rα was captured for 60 seconds at a flow rate of 10 uL/min on flow cell 2 in 1×HBSP buffer on a Protein A sensor chip. 100 nM of each HIS and Flag tag purified IL2 mutant was injected onto both the reference flow cell 1 and IL2Rα captured flow cell 2 for 150 seconds at a flow rate of 30 uL/min followed by washing for 300 seconds. The flow cells were then regenerated with Glycine pH 2.0 for 60 seconds at a flow rate of 30 uL/min. A HBSP+ buffer was included with each sample as a baseline control. The assay was set up in a 96-well format. The kinetics data was analyzed with Biacore T200 evaluation software 3.0. The specific binding response unit was derived from subtraction of binding to reference flow cell 1 from IL2Rα flow cell 2 and subtraction of buffer control. […] Relative response (RU) was determined for each IL2Rα-reduced binding clone (FIG. 4, Table 3).

Row | RU (at 100 nM) | Relevant binding to WT IL2 (%) | Binder
1 | 2.1 RU | 1.48% | B1
2 | 2.7 RU | 1.9% | B2
3 | 2.6 RU | 1.83% | B3
4 | 2.4 RU | 1.69% | B4
5 | 2.4 RU | 1.69% | B5
6 | 3 RU | 2.11% | B6

Target: T1, human IL2Rα
Test: SPR, receptor captured on Protein A chip, E. coli-produced IL2
Method: (§1) The assay was run with Biacore T200 control software version 2.0. For each cycle, 1 μg/mL of human IL2Rβ or IL2Rα was captured for 60 seconds at flow rate of 10 μL/min on flow cell 2 in 1×HBST buffer on Protein A sensor chip. Two-fold serial diluted HIS tag purified engineered IL2 mutant was injected onto both reference flow cell 1 and IL2Rβ or IL2Rα captured flow cell 2 for 150 seconds at flow rate of 30 μL/min followed by washing for 300 seconds. The flow cells were then regenerated with Glycine pH 2 for 40 seconds at a flow rate of 30 μL/mins. Eight concentration points from 0 to 100 nM were assayed for each IL2Rβ agonist clone 96-well plate format. The kinetics data was analyzed with Biacore T200 evaluation software 3000. The specific binding response unit was derived from subtraction of binding to reference flow cell 1 from target flow cell 2.

Row | Kd | relative activity IL2Rα (KD: fold) against WT IL2 | Binder
7 | 101 nM | -10.6 fold | B7
8 | 481 nM | -50.6 fold | B8
9 | 12.6 nM | -1.3 fold | B9

Target: T2, human IL2Rβ
Test: as above
Method: as §1

Row | Kd | koff | kon | relative activity IL2Rβ (KD: fold) against WT IL2 | Binder
10 | 2.37 nM | 0.00273 s⁻¹ | 1.15e+06 M⁻¹ s⁻¹ | 1830 fold | B7
11 | 3.1 nM | 0.00254 s⁻¹ | 819000 M⁻¹ s⁻¹ | 1400 fold | B8
12 | 0.885 nM | 0.0054 s⁻¹ | 6.1e+06 M⁻¹ s⁻¹ | 4910 fold | B9

Target: T1, human IL2Rα
Test: IL2Rα binding ELISA with E. coli culture supernatant of the clone; hFc bar as control (Example 2)

Row | Binder | binding result
13 | B1 | no binding (tested: supernatant, concentration not given)
14 | B2 | no binding (tested: supernatant, concentration not given)
15 | B3 | no binding (tested: supernatant, concentration not given)
16 | B4 | no binding (tested: supernatant, concentration not given)
17 | B5 | no binding (tested: supernatant, concentration not given)
18 | B6 | no binding (tested: supernatant, concentration not given)

Target: T1, human IL2Rα
Test: ELISA, receptor coated, anti-human Fc HRP
Method: (§2) For bivalent Fc-fusion proteins, human IL2Rα, and human IL2Rβ were each immobilized in a 384 well plate at final concentration of 2 μg/mL in 1×PBS in total volume of 25 μL per well. The plate was incubated overnight at 4° C. followed by blocking with 80 μL of superblock per well for 1 hour. The purified engineered IL2 mutant Fc fusion protein at 100 nM was 3-fold serial diluted 12 times. Each dilution was added to IL2Rα and IL2Rβ wells in parallel. The engineered IL2 mutant binding was detected by adding 50 μL of anti-human Fc HRP diluted at 1:5000 in 1×PBST. In between each step, the plate was washed 3 times with 1×PBST in a plate washer. The plate was then developed with 25 μl of TMB substrate for 5 mins and stopped by adding 25 μl of 2N sulfuric acid. The plate was read at OD450 nm Biotek plate reader and the EC50 was analyzed with Prism 8.1 software.

Row | EC50 | relative activity IL2Rα (EC50: fold) against EP085 | Binder
19 | 0.056 nM | -1.17 fold | B10
20 | 0.087 nM | -1.73 fold | B11
21 | 0.64 nM | -12.7 fold | B12
22 | 0.028 nM | 1.78 fold | B13
23 | 0.046 nM | 1.09 fold | B14
24 | 0.041 nM | 1.24 fold | B15
25 | 0.041 nM | 1.23 fold | B16

Target: T2, human IL2Rβ
Test: ELISA, receptor coated, anti-human Fc HRP
Method: as §2

Row | EC50 | relative activity IL2Rβ (EC50: fold) against EP085 | Binder
26 | 0.23 nM | 1280 fold | B10
27 | 0.2 nM | 1530 fold | B11
28 | 0.41 nM | 727 fold | B12
29 | 0.25 nM | 1190 fold | B13
30 | 0.28 nM | 1080 fold | B14
31 | 2.1 nM | 142 fold | B15
32 | 2.6 nM | 117 fold | B16
